Results on one variant are retold here after IntAct's records for PubMed 17280616.

First the molecules themselves.
B1: Maternal embryonic leucine zipper kinase (Homo sapiens), Q14680 (parent)
chain: MKDYDELLKYYELHETIGTGGFAKVKLACHILTGEMVAIKIMDKNTLGSDLPRIKTEIEALKNLRHQHICQLYHVLETANKIFMVLEYCPGGELFDYIISQDRLSEEETRVVFRQIVSAVAYVHSQGYAHRDLKPENLLFDEYHKLKLIDFGLCAKPKGNKDYHLQTCCGSLAYAAPELIQGKSYLGSEADVWSMGILLYVLMCGFLPFDDDNVMALYKKIMRGKYDVPKWLSPSSILLLQQMLQVDPKKRISMKNLLNHPWIMQDYNYPVEWQSKNPFIHLDDDCVTELSVHHRNNRQTMEDLISLWQYDHLTATYLLLLAKKARGKPVRLRLSSFSCGQASATPFTDIKSNNWSLEDVTASDKNYVAGLIDYDWCEDDLSTGAATPRTSQFTKYWTESNGVESKSLTPALCRTPANKLKNKENVYTPKSAVKNEEYFMFPEPKTPVNKNQHKREILTTPNRYTTPSKARNQCLKETPIKIPVNSTGTDKLMTGVISPERRCRSVELDLNQAHMEETPKRKGAKVFGSLERGLDKVITVLTRSKRKGSARDGPRRLKLHYNVTTTRLVNPDQLLNEIMSILPKKHVDFVQKGYTLKCQTQSDFGKVTMQFELEVCQLQKPDVVGIRRQRLKGDAWVYKRLVEDILSSCKV

The test covers variants of B1. To be noted: with BCL2L14, Q9BZR8.
BCL2L14, Q9BZR8, sequence (Q9BZR8 whole entry): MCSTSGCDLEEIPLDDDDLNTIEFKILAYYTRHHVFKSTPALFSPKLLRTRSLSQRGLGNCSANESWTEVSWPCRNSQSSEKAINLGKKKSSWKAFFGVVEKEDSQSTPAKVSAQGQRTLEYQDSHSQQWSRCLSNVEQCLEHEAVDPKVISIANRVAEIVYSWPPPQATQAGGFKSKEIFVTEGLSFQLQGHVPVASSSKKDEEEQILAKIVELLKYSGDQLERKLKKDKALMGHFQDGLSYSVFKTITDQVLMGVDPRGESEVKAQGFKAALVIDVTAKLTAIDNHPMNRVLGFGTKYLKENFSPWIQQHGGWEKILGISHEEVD
Turning to D150A, the “effect of a mutation on the interaction” value is “disrupting interaction”.
